Reference: publication PMC4376737, “An S188V Mutation Alters Substrate Specificity of Non-Stereospecific α-Haloalkanoic Acid Dehalogenase E (DehE)” (PLoS ONE, 2015)

Tests used:
Conditions in all cases: 0.1 M Tris-acetate pH 7.6, 30°C, apparent
C[C@H](Cl)C(=O)O [1] = tested on: T1, C[C@H](Cl)C(=O)O; test: colourimetric chloride release (Bergmann and Sanik), A460; assay type: biochemical, Rhizobium sp. RC1
T1 construct: recombinant from pET-22b(+)-dehE in E. coli, purified from cell-free extract; 32 kDa band on SDS-PAGE; monomeric
Description: (§1) colourimetric chloride release (Bergmann and Sanik), A460 on DehE (non-stereospecific α-haloalkanoic acid dehalogenase E)

C[C@@H](Cl)C(=O)O [2] = tested on: T2, C[C@@H](Cl)C(=O)O; test: as above; assay type: biochemical, Rhizobium sp. RC1
T2 construct: recombinant from pET-22b(+)-dehE in E. coli, purified from cell-free extract; 32 kDa band on SDS-PAGE; monomeric
Description: as §1

O=C(O)CCCl = tested on: T3, O=C(O)CCCl; test: as above; assay type: biochemical, Rhizobium sp. RC1
T3 construct: recombinant from pET-22b(+)-dehE in E. coli, purified from cell-free extract; 32 kDa band on SDS-PAGE; monomeric
Description: as §1

C[C@@H](Cl)C(=O)O [3] = test: purified protein
C[C@H](Cl)C(=O)O [4] = test: purified protein

DehE (non-stereospecific α-haloalkanoic acid dehalogenase E) (Rhizobium sp. RC1; S188V)
Km (C[C@H](Cl)C(=O)O [1]): (4.2 ± 0.02) x 10^-4 M
kcat (C[C@H](Cl)C(=O)O [1]): 13.1 s⁻¹
kcat/Km (C[C@H](Cl)C(=O)O [1]): 31200 M⁻¹ s⁻¹
Km (C[C@@H](Cl)C(=O)O [2]): (4.5 ± 0.01) x 10^-4 M
kcat (C[C@@H](Cl)C(=O)O [2]): 9.18 s⁻¹
kcat/Km (C[C@@H](Cl)C(=O)O [2]): 20400 M⁻¹ s⁻¹
Km (O=C(O)CCCl): (4.9 ± 0.02) x 10^-4 M
kcat (O=C(O)CCCl): 12.6 s⁻¹
kcat/Km (O=C(O)CCCl): 25600 M⁻¹ s⁻¹

DehE (non-stereospecific α-haloalkanoic acid dehalogenase E) (Rhizobium sp. RC1)
Km (C[C@@H](Cl)C(=O)O [3]): (4.8 ± 0.03) x 10^-4 M
kcat (C[C@@H](Cl)C(=O)O [3]): 7.76 s⁻¹
kcat/Km (C[C@@H](Cl)C(=O)O [3]): 16100 M⁻¹ s⁻¹
Km (C[C@H](Cl)C(=O)O [4]): (4.3 ± 0.02) x 10^-4 M
kcat (C[C@H](Cl)C(=O)O [4]): 12.3 s⁻¹
kcat/Km (C[C@H](Cl)C(=O)O [4]): 28600 M⁻¹ s⁻¹
